From article PMC10074858

Tests used:
[1] = target: alpha-fetoprotein receptor (human (endogenous in tumor cell lines)); test: plate-reader fluorescence of labeled protein bound to and internalized by cells; 0.5 µM F-ACT-101 (Alexa Fluor 647) with tumor cells at 37 °C for 0.5, 2 and 5 h, stopped on ice, cells washed, sonicated with DMSO, fluorescence read; background subtracted; binding/internalization as ng per million cells; n = 3
[2] = target: alpha-fetoprotein receptor (human (endogenous in tumor cell lines)); test: flow cytometry on cells; COLO-205 or U937 cells, F-ACT-101 (Alexa Fluor 488) at 1, 3, 10, 30 and 100 µg/mL in cold PBS for 1 h on ice; percent of cells positive

| ng F-ACT-101 per million cells (COLO-205, 0.5 h) (ng/million cells) [1] | ng F-ACT-101 per million cells (COLO-205, 2 h) (ng/million cells) [1] | ng F-ACT-101 per million cells (COLO-205, 5 h) (ng/million cells) [1] | ng F-ACT-101 per million cells (H522, 0.5 h) (ng/million cells) [1] | ng F-ACT-101 per million cells (H522, 2 h) (ng/million cells) [1] | ng F-ACT-101 per million cells (H522, 5 h) (ng/million cells) [1] | ng F-ACT-101 per million cells (MCF-7, 0.5 h) (ng/million cells) [1] | ng F-ACT-101 per million cells (MCF-7, 2 h) (ng/million cells) [1] | ng F-ACT-101 per million cells (MCF-7, 5 h) (ng/million cells) [1] | ng F-ACT-101 per million cells (OVCAR-3, 0.5 h) (ng/million cells) [1] | ng F-ACT-101 per million cells (OVCAR-3, 2 h) (ng/million cells) [1] | ng F-ACT-101 per million cells (OVCAR-3, 5 h) (ng/million cells) [1] | ng F-ACT-101 per million cells (SKOV-3, 0.5 h) (ng/million cells) [1] | ng F-ACT-101 per million cells (SKOV-3, 2 h) (ng/million cells) [1] | ng F-ACT-101 per million cells (SKOV-3, 5 h) (ng/million cells) [1] | ng F-ACT-101 per million cells (U937, 0.5 h) (ng/million cells) [1] | ng F-ACT-101 per million cells (U937, 2 h) (ng/million cells) [1] | ng F-ACT-101 per million cells (U937, 5 h) (ng/million cells) [1] | percent of cells positive for binding (COLO-205, at 100 µg/mL) [2] [%] | percent of cells positive for binding (U937, at 100 µg/mL) [2] [%] | Binder |
| --- | --- | --- | --- | --- | --- | --- | --- | --- | --- | --- | --- | --- | --- | --- | --- | --- | --- | --- | --- | --- |
| 6.9 | 33.6 | 75 | 55.6 | 27.1 | 71.3 | 51 | 53.6 | 126 | 67 | 21.2 | 71 | 31.3 | 9.2 | 16 | 29.5 | 67.1 | 84.3 |  |  | Fluorescently labeled ACT-101 (Alexa Fluor 647) (ligand, Alexa Fluor 647 label (protein labeling kit); sites not stated) RTLHRNEYGIASILDSYQCTAEISLADLATIFFAQFVQEATYKEVSKMVKDALTAIEKPTGDEQSSGCLENQLPAFLEELCHEKEILEKYGHSDCCSQSEEGRHNCFLAHKKPTPASIPLFQVPEPVTSCEAYEEDRETFMNKFIYEIARRHPFLYAPTILLWAARYDKIIPSCCKAENAVECFQTKAATVTKELRESSLLNQHACAVMKNFGTRTFQAITVTKLSQKFTKVQFTEIQKLVLDVAHVHEHCCRGDVLDCLQDGEKIMSYICSQQDTLSNKITECCKLTTLERGQCIIHAENDEKPEGLSPNLNRFLGDRDFNQFSSGEKNIFLASFVHEYSRRHPQLAVSVILRVAKGYQELLEKCFQTENPLECQDKGEEELQKYIQESQALAKRSCGLFQKLGEYYLQNAFLVAYTKKAPQLTSSELMAITRKMAATAATCCQLSEDKLLACGEGAADIIIGHLCIRHEMTPVNPGVGQCCTSSYANRRPCFSSLVVDETYVPPAFSDDKFIFHKDLCQAQGVALQTMKQEFLINLVKQKPQITEEQLEAVIADFSGLLEKCCQGQEQEVCFAEEGQKLISKTRAALGV |
|  |  |  |  |  |  |  |  |  |  |  |  |  |  |  |  |  |  | 90 | 90 | Fluorescently labeled ACT-101 (Alexa Fluor 488) (ligand, Alexa Fluor 488 label (microscale protein labeling kit); sites not stated) RTLHRNEYGIASILDSYQCTAEISLADLATIFFAQFVQEATYKEVSKMVKDALTAIEKPTGDEQSSGCLENQLPAFLEELCHEKEILEKYGHSDCCSQSEEGRHNCFLAHKKPTPASIPLFQVPEPVTSCEAYEEDRETFMNKFIYEIARRHPFLYAPTILLWAARYDKIIPSCCKAENAVECFQTKAATVTKELRESSLLNQHACAVMKNFGTRTFQAITVTKLSQKFTKVQFTEIQKLVLDVAHVHEHCCRGDVLDCLQDGEKIMSYICSQQDTLSNKITECCKLTTLERGQCIIHAENDEKPEGLSPNLNRFLGDRDFNQFSSGEKNIFLASFVHEYSRRHPQLAVSVILRVAKGYQELLEKCFQTENPLECQDKGEEELQKYIQESQALAKRSCGLFQKLGEYYLQNAFLVAYTKKAPQLTSSELMAITRKMAATAATCCQLSEDKLLACGEGAADIIIGHLCIRHEMTPVNPGVGQCCTSSYANRRPCFSSLVVDETYVPPAFSDDKFIFHKDLCQAQGVALQTMKQEFLINLVKQKPQITEEQLEAVIADFSGLLEKCCQGQEQEVCFAEEGQKLISKTRAALGV |
